From US6071709A, “Nerve growth factor/receptor complex” (The United States of America as represented by the …, priority 1992, dated 2000)

How the values were obtained:
gp140^prototrk = target: T1, gp140^prototrk (Rattus norvegicus, UniProt P35739); experiment: trk tyrosine phosphorylation in PC12 cells treated with NGF (32P labelling / Ptyr immunoblot of trk immunoprecipitates); format: cell-based
T1 construct: tyrosine phosphorylation in response to NGF addition to PC12 cells; endogenous in cells; host or cells: PC12 cells
T1 sequence (P35739 33-799): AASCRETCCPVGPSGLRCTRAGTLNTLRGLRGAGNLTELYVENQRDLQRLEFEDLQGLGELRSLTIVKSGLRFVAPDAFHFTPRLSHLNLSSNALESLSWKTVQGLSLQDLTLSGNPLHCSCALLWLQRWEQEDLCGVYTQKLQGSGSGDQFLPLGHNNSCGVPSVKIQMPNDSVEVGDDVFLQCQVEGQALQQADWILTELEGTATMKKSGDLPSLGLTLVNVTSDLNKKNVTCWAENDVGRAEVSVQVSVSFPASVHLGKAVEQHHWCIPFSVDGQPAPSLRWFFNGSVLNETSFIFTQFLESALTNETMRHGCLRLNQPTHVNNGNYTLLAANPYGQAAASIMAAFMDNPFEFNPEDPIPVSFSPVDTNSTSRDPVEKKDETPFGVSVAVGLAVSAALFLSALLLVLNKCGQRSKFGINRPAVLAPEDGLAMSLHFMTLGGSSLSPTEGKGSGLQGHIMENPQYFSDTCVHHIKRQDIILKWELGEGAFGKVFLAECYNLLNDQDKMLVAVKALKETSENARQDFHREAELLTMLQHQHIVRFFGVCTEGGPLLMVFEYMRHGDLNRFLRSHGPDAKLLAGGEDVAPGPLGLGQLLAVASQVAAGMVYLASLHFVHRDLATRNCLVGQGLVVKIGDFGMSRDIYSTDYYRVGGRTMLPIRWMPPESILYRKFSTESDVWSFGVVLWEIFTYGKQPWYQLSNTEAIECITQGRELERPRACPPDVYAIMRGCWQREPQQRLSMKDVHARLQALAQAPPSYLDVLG
Method: FIGS. 1A-C show the tyrosine phosphorylation of gp140trk in PC12 cells and trk-expressing NIH-3T3 cells treated with NGF. FIG. 1A, gp140trk immunoprecipitated from PC12 cells or trk-expressing 3T3 cells labeled with ^32 P-orthophosphate. Immunoprecipitates were prepared with rabbit anti-trk antisera 43-4 (D. Martin-Zanca et al., Mol Cell. Biol. 9:24-33 (1989)) from lysates prepared from 3T3 cells expressing the rat trk gene (trk 3T3) (lane 1) or PC12 cells treated for 5 min with 100 ng/ml NGF at 37° C. (lanes 2 and 4) or mock treated (lane 3). The immunoprecipitate shown in lane 2 was prepared in the presence of the peptide used to generate the rabbit 43-4 trk antibody (Martin-Zanca et al., (1989)). Shown in FIG. 1B is the phosphoamino acid analysis of trk proteins phosphorylated in vitro in p140trk immunoprecipitates from NGF treated PC12 cells in vivo from NGF treated (+) or untreated (-) PC12 cells, or in vivo from trk 3T3 cells. The positions of phosphoserine (S), phosphothreonine (T), and phosphotyrosine (Y) are indicated. FIG. 1C, trk proteins from trk 3T3 cells phosphorylated […]. In lanes 1-3, gp140trk immunoprecipitates were probed with P-tyr antibodies. In lanes 4-6, gp140trk proteins were phosphorylated in vitro in kinase assays. Cells were treated with suramin (lanes 2 and 5) or with 500 ng/ml NGF for 10 min following suramin treatment. The band migrating at 110 kDa is a glycosylation precursor of gp140^prototrk (Martin-Zanca et al., (1989)). The band at the bottom of the figure is IgG. Molecular weight markers in kDa are indicated.
rtrk 3T3 cells were generated by CaPO4 mediated transfection of a rat trk cDNA into NIH-3T3 cells. Rat trk cDNAs were obtained from an embryonic rat DRG cDNA library. The longest trk cDNA obtained (2.4 kbp) was missing approximately 150 bp of the coding region as compared to available mouse and human trk sequence. The missing bases plus minimal (~50 bp) 5' flanking non-coding sequences were replaced from mouse first coding exon sequences and the reconstructed gene was placed downstream of an MSV-LTR. PC12 cells or rtrk 3T3 cells (2×10^7) were labeled with ^32 P orthophosphate (1 mCi.ml in 4 ml) for 4 hr at 37° C. Cells were treated with NGF for the indicated times, washed, lysed in buffer containing 1% NP40, and the lysates immunoprecipitated with trk antibody 43-4 (D. R. Kaplan et al., Cell 61:125-133 (1990)) and electrophoresed on 7.5% SDS-PAGE gels as previously described (Kaplan et al., (1990)). For b, the phosphorylated trk bands were eluted from the gel and phosphoamino acid analysis performed as described (B. M. Sefton et al., J. Cell 24:165-174 (1981)). gp140trk protein from NGF treated PC12 cells was phosphorylated in vitro. For c, rtrk 3T3 cells were treated with 1 mM suramin in Dulbecco's Modified Eagle Medium (DMEM) for 2 h or mock treated. Following extensive washing of the cells with DMEM, NGF was added for the time indicated. Cells were lysed and the lysates were immunoprecipitated with trk antibody. Immunoprecipitates were either subjected to immunoblot analysis with the phosphotyrosine (Ptyr) monoclonal antibody 4G10 (Lanes 1-3), or were analyzed in kinase assays. (D. K. Morrison, et al. Cell 58:649-657 (1989) and Kaplan et al., (1990)). Similar amounts of trk protein were present in each lane.
FIGS. 2A-C. Time course, growth factor specificity, and dose response of trk tyrosine phosphorylation in PC12 cells. A, Time course of trk tyrosine phosphorylation. Cells (2×10^7) were treated with 50 ng/ml NGF at 37° C. B, Effects of growth and differentiation factors on trk tyrosine phosphorylation. Cells were treated with 100 ng/ml NGF, 100 ng/ml basic fibroblast growth factor (FGF) (Boehringer Mannheim Biochemicals), 100 ng/ml epidermal growth factor (EGF) (Upstate Biotechnology, Inc.), 100 nM insulin (Sigma), or 1 μg/ml phorbal 12-myristate […] (PMA) (Sigma) for 15 min. at 37° C. C, dose response of trk tyrosine phosphorylation. […]

p140^prototrk = experiment: NGF-dependent trk tyrosine phosphorylation in SY5Y cells; format: cell-based, human; settings: 100 ng/ml NGF for 5 min
Source text: FIGS. 4A-B show NGF-dependent tyrosine phosphorylation of gp140trk in the human neuroblastoma cell lines LA-N-5, SY5Y, and dorsal root ganglia from mouse embryos. FIG. 4A, gp140trk was immunoprecipitated from untreated (-) or NGF treated (+) LA-N-5 cells (K. H. Sonnenfeld and D. N. Ishii, J. Neurosci. Res. 8:375-391 (1982)), SY5Y cells (K. H. Sonnenfeld and D. N. Ishii, (1982)), NR18 cells (M. A. Bothwell et al., Cell 21:857-866 (1980)), or PC12 cells. Immunoprecipitates were probed with P-tyr antibodies. The differences in trk protein mobilities are due to differences in glycosylation. FIG. 4B, Tyrosine phosphorylation of gp140trk in DRGs from 13.5 day or 14.5 day embryonic mice. DRGs were maintained in 100 ng/ml NGF for ≥10 min prior to lysis and immunoprecipitation with trk antibodies. trk immunoprecipitates were probed with P-tyr antibody. Tyrosine phosphorylated gp140trk from NGF-treated (+) PC12 cells or untreated (-) PC12 cells is shown for comparison. Samples were normalized for cell protein. Molecular weight markers in kDa are indicated.
Cell lines were treated with 100 ng/ml NGF for 5 min and gp140trk immunoprecipitated as in FIG. 1. DRGs were prepared by dissection for 13.5 or 14.5 day mouse embryos. […] Lysates were immunoprecipitated with trk antibody and the trk proteins were analyzed by antiphosphotyrosine immunoblots. […]

“NGF: neurotrophic polypeptide factor, nerve growth factor; ligand of trk proto-oncogene receptor” was tested. Which “time to maximum levels of trk tyrosine phosphorylation” value (gp140^prototrk; 50 ng/ml NGF, 37° C.) did it give?
The value was “five”.

What about the “stimulation of tyrosine phosphorylation of gp140^prototrk” value (gp140^prototrk; 32P-orthophosphate labelled, 50 ng/ml NGF for 5 min) of the same substance?
The value was 20 fold.

What about the “half maximal tyrosine phosphorylation concentration” value (gp140^prototrk; 30 min at 37° C., dose response) of the same substance?
The value was 0.1 ng/mL.

And the “trk tyrosine phosphorylation after two days of treatment” value (gp140^prototrk; fully differentiated, two days of NGF)?
Its value is “Residual phosphorylation was detected”.

And the “p140^prototrk tyrosine phosphorylation” value (p140^prototrk)?
Its value is “enhanced”.
